For two substances, response results are on record in article PMC5780041.

Holding throughout (experiment): GST pull-down, quantified immunoblot
A general note: In western blotting, separated proteins are transferred to a membrane and probed.

The target in assay [1] is 3x tandem linear human ubiquitin (C-terminal His-tagged) (UniProt P0CG48). As to conditions: - PINK1 (non-phosphorylated 3xUb); parent: est. 16; read off a plot.
In assay [2] the target is 3x tandem linear human ubiquitin (C-terminal His-tagged), phosphorylated in vitro by GST-TcPINK1 (UniProt P0CG48). The settings on record: + PINK1 (3xUb pre-treated with GST-TcPINK1); parent: est. 14; read off a plot.
The target in assay [3] is 4x tandem linear human ubiquitin (C-terminal His-tagged) (UniProt P0CG48). As to conditions: - PINK1 (non-phosphorylated 4xUb); parent: est. 32; read off a plot.
For assay [4], the target named is 4x tandem linear human ubiquitin (C-terminal His-tagged), phosphorylated in vitro by GST-TcPINK1 (UniProt P0CG48). As to conditions: + PINK1 (4xUb pre-treated with GST-TcPINK1); parent: est. 20; read off a plot.
The target in assay [5] is 2x tandem linear human ubiquitin (C-terminal His-tagged), phosphorylated in vitro by GST-TcPINK1 (UniProt P0CG48). As to conditions: + PINK1 (2xUb pre-treated with GST-TcPINK1); parent: est. 7.5; read off a plot.

Chain of GST-tagged mouse RABGEF1 (WT) 1-74aa, Q9JM13 Y26A (Q9JM13 1-74 Y26A): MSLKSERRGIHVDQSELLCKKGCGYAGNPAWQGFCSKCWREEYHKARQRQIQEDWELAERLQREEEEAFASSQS
Chain of GST-tagged mouse RABGEF1 (WT) 1-74aa, Q9JM13 A58D (Q9JM13 1-74 A58D): as the sequence (Q9JM13 1-74 Y26A) above, with A26Y, A58D counted along it

With “GST-tagged mouse RABGEF1 (WT) 1-74aa, Q9JM13 A58D”, the response in assay [1] was 8 % of total; in assay [2], 8 % of total; in assay [3] it was 24 % of total; in assay [4], 17 % of total.

As to “GST-tagged mouse RABGEF1 (WT) 1-74aa, Q9JM13 Y26A”, the response was 4 % of total in assay [5]; 14 % of total in assay [1]; 13 % of total in assay [2]; 28 % of total in assay [3]; 20 % of total in assay [4].
